In PMC2112662:

Target: type IV (basement membrane) collagen of Np cells (Peak II) (mouse (endogenous in Np fibrosarcoma cells))
Test: radioligand binding

laminin specifically bound (cpm) at 50 ng 125I-laminin added: 0 cpm | laminin specifically bound (cpm) at 500 ng 125I-laminin added: 9250 cpm
Substance: laminin (from the EHS (Engelbreth-Holm-Swarm) sarcoma) (from UniProt P19137 25-3083; P02469 22-1786; P02468 34-1607) (complex)
